Substitutions are numbered along the chain they refer to. Starred links: 1 amine or outer side, 2 acyl side, 3 side chain; linkers in the order of their positions; H or OH if unused. Non-standard residues stand in square brackets, D forms with d. No end group written: not given here. pCF2‑Ser = (α,α-difluoromethylene)phosphonoserine, O=C([C@H](CC(F)(F)P(=O)(O)O)N[*:1])[*:2]
Columns and labels:
ScCdc14^1-449 = target: T1, ScCdc14^1-449 (S. cerevisiae, UniProt Q00684 1-449); details: both partners purified
T1 construct: Expressed from pDEST17; also called Saccharomyces cerevisiae Cdc14 truncation that retains the SLiCE motif; source: E. coli, purified (HisTrap nickel sepharose)
T1 sequence (looked up): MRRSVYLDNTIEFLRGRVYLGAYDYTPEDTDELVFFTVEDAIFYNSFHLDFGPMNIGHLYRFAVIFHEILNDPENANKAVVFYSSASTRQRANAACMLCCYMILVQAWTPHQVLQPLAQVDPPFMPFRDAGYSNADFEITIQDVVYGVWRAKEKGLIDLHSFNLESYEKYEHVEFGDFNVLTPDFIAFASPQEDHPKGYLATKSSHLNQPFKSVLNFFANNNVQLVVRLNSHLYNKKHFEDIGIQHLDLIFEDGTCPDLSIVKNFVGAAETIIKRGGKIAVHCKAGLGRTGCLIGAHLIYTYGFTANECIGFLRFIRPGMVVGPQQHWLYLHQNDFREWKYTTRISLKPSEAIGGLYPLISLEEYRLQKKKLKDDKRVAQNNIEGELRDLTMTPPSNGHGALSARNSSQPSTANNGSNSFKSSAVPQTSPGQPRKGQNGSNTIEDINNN

ScCdc14^P433A/K435A = target: T2, ScCdc14^P433A/K435A (S. cerevisiae, UniProt Q00684 1-449, P433A | K435A); details: both partners purified
T2 construct: source: E. coli, purified (HisTrap nickel sepharose)
T2 sequence (looked up): T1 sequence (looked up) with P433A, K435A

EV[pCF2‑Ser]PTKR [EV(pCF2-Ser)PTKR]
Kd (ScCdc14^1-449): 6 ± 2 µM | Kd (ScCdc14^P433A/K435A): 13 ± 4 µM
